From article PMC11980541, “3D meshwork architecture of the outer coat protein CotE: implications for bacterial endospore sporulation and germination” (mBio, 2025)

Key:
[1] = target: CotE (outer coat protein CotE); conditions: PBS pH 7.2, 25 °C; 100 µM protein in cell, 1 mM DPA in syringe; C-terminal His-tagged trimeric mutant
[2] = target: W65E variant CotE protein, C-terminal His-tagged (Bacillus cereus); test: SEC-MALS; Superdex 75 Increase 10/300 GL, 2 mg/mL protein, 20 mM Tris pH 8.0
[3] = target: wild-type CotE protein from Bacillus cereus (Bacillus cereus); test: SEC; Superdex 200 Increase 10/300 GL, 20 mM Tris-HCl pH 8.0, no CaCl2; CotE 5 mg/mL; apparent molecular weight from a calibration curve
[4] = target: wild-type CotE protein from Bacillus cereus (Bacillus cereus); test: cryo-EM structure; CotE 2 mg/mL with 5 mM CaCl2 (meshwork); C3 map of the trimer unit at 6.55 Å and C2 map of two joined trimers at 6.86 Å; AlphaFold2 trimer models fitted
[5] = target: wild-type CotE protein from Bacillus cereus (Bacillus cereus); test: SEC; Superdex 200 Increase 10/300 GL, 20 mM Tris-HCl pH 8.0 with 5 mM CaCl2; CotE 5 mg/mL; apparent molecular weight from a calibration curve

O=C(O)c1cccc(C(=O)O)n1 [DPA, dipicolinic acid]
Kd [1]: 6.3 µM

W65E variant CotE protein, C-terminal His-tagged (natural protein)
stoichiometry N [2]: 3

wild-type CotE protein from Bacillus cereus (natural protein)
stoichiometry N [3]: 12 | stoichiometry N [4]: 3 | stoichiometry N [5]: > 100
